Test results as given in the supplement of paper PMC7877785.
± gives the uncertainty stated by the source.

Assay: self-splicing fitness, log relative to wild type (ln ratio); higher = more splicing; Tetrahymena group I intron in knt gene, E. coli kanamycin selection, DiMSum; sequences stand for … in CUCUCU…GGAGGGAAAAGUUAUCAGGCAUGCACCUGGUAGCUAGUCUUUAAACCAAUAGAUUGCAUCGGUUUAAAAGGCAAGACCGUCAAAUUGCGGGAAAGGGGUCAACAGCCGUUCAGUACCAAGUCUCAGGGGAAACUUUGAGAUGGCCUUGCAAAGGGUAUGGUAAUAAGCUGACGGACAUGGUCCUAACCACGCAGCCAAGUCCUAAGUCAACAGAUCUUCUGUUGAUAUGGAUGCAGUUCACAGACUAAAUGUCGGUCGGGGAAGAUGUAUUCUUCUCAUAAGAUAUAGUCGGACCUCUCCUUAAUGGGAGCUAGCGGAUGAAGUGAUGCAACACUGGAGCCGCUGGGAACUAAUUUGUAUGCGAAAGUAUAUUGAUUAGUUUUGGAGUACUCGUGGUCG
In short: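 Pooled colonies went to amplicon sequencing on an Illumina HiSeq 2500 after six replicate transformations. The plates were LB agar with 100 μg/mL carbenicillin, 50 μM IPTG and 0.2% rhamnose, with or without 25 μg/mL kanamycin, incubated overnight at 37°C or 30°C. The E. coli BL21(DE3) library had all eight P1ex-region intron nucleotides randomised, the intron placed in the knt kanamycin-resistance gene on pET-22b(+). DiMSum fitness is the error-weighted combination of replicate fold changes, kanamycin against none, normalised to wild type.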

Sequence | self-splicing fitness (ln) (30 °C) | self-splicing fitness (ln) (37 °C)
GCGUAGCAAUAUUACGCACC | -4.01 ± 0.37 | -1.49 ± 0.34
GCGUAGCAAUAUUACGCGAA |  | -1.31 ± 0.39
GCGUAGCAAUAUUACGCGCU | -3.31 ± 0.2 | -2.84 ± 0.35
GCGUAGCAAUAUUACGCGGC | -2.64 ± 0.27 | -2.08 ± 0.46
GCGUAGCAAUAUUACGGCCG | -1.01 ± 0.16 | 0.509 ± 0.34
GCGUAGCAAUAUUACGGCUA | -1.92 ± 0.26 | -0.79 ± 0.2
GCGUAGCAAUAUUACGGUAG | -2.9 ± 0.28 | -2.03 ± 0.23
GCGUAGCAAUAUUACGGUCA | -0.597 ± 0.081 | -0.142 ± 0.083
GCGUAGCAAUAUUACGGUGU | -3.33 ± 0.21 | -1.48 ± 0.14
GCGUAGCAAUAUUACGGUUC | -2.26 ± 0.14 | -0.643 ± 0.18
GCGUAGCAAUAUUACGGUUG | -2.96 ± 0.13 | -1.75 ± 0.14
GCGUAGCAAUAUUACGUAAC | -3.58 ± 0.27 | -0.0467 ± 0.15
GCGUAGCAAUAUUACGUAGG | -3.73 ± 0.22 | -2.02 ± 0.19
GCGUAGCAAUAUUACGUCGA | -2.69 ± 0.35 | -1.85 ± 0.32
GCGUAGCAAUAUUACGUCGC | -2.62 ± 0.13 | -1.84 ± 0.21
GCGUAGCAAUAUUACGUCUU | -3.15 ± 0.098 | -1.93 ± 0.1
GCGUAGCAAUAUUACGUGUC | -3.83 ± 0.27 | -2.06 ± 0.14
GCUAAGCAAUAUUACGAAAU | -1.64 ± 0.11 | -0.218 ± 0.1
GCUAAGCAAUAUUACGAACC | -0.414 ± 0.15 | 1.05 ± 0.23

Sequence | self-splicing fitness (ln) (30 °C) | self-splicing fitness (ln) (37 °C)
GCUAAGCAAUAUUACGACGA | -0.978 ± 0.088 | -0.529 ± 0.1
GCUAAGCAAUAUUACGAGAU | -2.3 ± 0.12 | -1.51 ± 0.14
GCUAAGCAAUAUUACGAGCG | -1.7 ± 0.11 | -0.246 ± 0.12
GCUAAGCAAUAUUACGAUAU | -0.896 ± 0.066 | -0.164 ± 0.094
GCUAAGCAAUAUUACGCGAU | -2.05 ± 0.45 | -0.565 ± 0.25
GCUAAGCAAUAUUACGCUCA | -1 ± 0.11 | -1.52 ± 0.14
GCUAAGCAAUAUUACGGACG | -0.941 ± 0.058 | -0.51 ± 0.074
GCUAAGCAAUAUUACGGAUC | -0.406 ± 0.11 | -0.265 ± 0.17
GCUAAGCAAUAUUACGGAUG | -1.52 ± 0.081 | -0.677 ± 0.12
GCUAAGCAAUAUUACGGCGG | -3.78 ± 0.12 | -2.7 ± 0.15
GCUAAGCAAUAUUACGGCUC | -0.551 ± 0.092 | -0.942 ± 0.098
GCUAAGCAAUAUUACGGGCU |  | -2.23 ± 0.31
GCUAAGCAAUAUUACGUAAC | -1.39 ± 0.11 | -0.735 ± 0.14
GCUCAGCAAUAUUACGACCU | -0.614 ± 0.2 | -0.401 ± 0.21
GCUCAGCAAUAUUACGACGA | -1.94 ± 0.17 | -1.5 ± 0.18
GCUCAGCAAUAUUACGAGAC | -3.42 ± 0.32 | -0.338 ± 0.2
GCUCAGCAAUAUUACGAGAG | -1.03 ± 0.14 | -0.875 ± 0.14
GCUCAGCAAUAUUACGAGCU | -1.77 ± 0.2 | -2.27 ± 0.35
GCUCAGCAAUAUUACGAGGG | -2.38 ± 0.16 | -2.57 ± 0.25
